Columns and labels:
[1] = system: CCR5 4-finger ZFN-L (ZFP-FokI) (artificial); experiment: cell_activity; details: with ZFN-R and WT CFTR donor in CCR5-expressing HEK293 Flp-In; 17% with CFTR delta508F donor; NHEJ deletions at endogenous CCR5
[2] = system: CCR5 4-finger ZFN-R (ZFP-FokI) (artificial); experiment: cell_activity; details: with ZFN-L and WT CFTR donor in CCR5-expressing HEK293 Flp-In; 17% with CFTR delta508F donor; NHEJ deletions at endogenous CCR5

With “GTCATCCTCATC (double strand) [CCR5 ZFN-L half-site]” the activity (% CCR5-negative cells) [1] was 23.

With “AAACTGCAAAAG (double strand) [CCR5 ZFN-R half-site]” the activity (% CCR5-negative cells) [2] was 23.
